According to a protein production outcome set (Wang et al. 2014):

Assay: label from the status in PepcDB records

Row | Sequence | protein production
1 | MASVSGNSTAPDSAAVVTVQDPLSDYVQGLFLDMKGDYWGAIDIFRKVLVRKPADPAVHYSISQSYYRLAVLDSARVYGEAAVRLDPSNRYYLRYLAVVAHDMRDYDRAAELYGQASLLEPDRTEIMYLQGLEYMAAKRLEPALEVFRKAVRIDPYNEAAFAQTLALEIALKHYPEAIDTSKQLLKLGGNERKIGITLAELYTKTGQETLAVQTLQELIAGDRSNITYWIALFDHYIMVGRNDDFHRELAVFLERASLPPESLHDLAKLYILRSGKDSLYVAPTIALLDELTARRPRDSELFMLKGMFGMMHGHQQEGVVLFRKAVQLDSSNATAWEYLISTQLDLGQKRQAFALLAKARRRLPGQRFRWSVLEGSLLLSSHKLRRAVAVLETVAGTKRKPGDPNLLIQANINLAMACDLLGMKKRSRSAYERVLDLDPHNTLAMNNLAYLFTEEGITLRKALRLATNAVMLEPENGVYLDTLGWVHYKLGNFELARQFLEKAAATGLDEPDIYRHLGEVYRKLGNEPKAREMLEKARTVEKTQGNKKSGH | failed
2 | TMNNEMSDPQIEEFYTIVKELEKFDTFTNFLDVHQPELAIVFGRTKRRVDELTSALISKGYKAEGLHGDITQAKRLEVLKKFKNDQINILVATDVAARGLDISGVSHVYNFDIPQDTESYTHRIGRTGRAGKEGIAVTFVNPIEMDYIRQIEDANGRKMSALRPPHRKEVLQAREDDIKEKVENWMSKESESRLKRISTELLNEYNDVDLVAALLQELVEANDEVEVQLTFEKPLSRKGRNGKPSGSR | failed
3 | ANKKIDHREEAIELLKQDAKRILQLIKVQMDNLTLPQCPAYEEVLDTQMYGLSREINFATRLGLIEPEEGKKLISTLEKELSALHELSMSK | failed
4 | MRVLVIGATGHVGTYLVPRLVEAGHDVVTISRGAARPYTADRAWASVDQRQMDRVEMERKGDFGPAMRALNADIVIDMICFTLESAEQLVTALSGYVGHFLHTGTIWTHGYPVAVPTREEAPKSPFGDYGIQKAAIETYLLQQARLRGFPATIIHPGHIVGRGWAPLNPAGNFNLQVFSTLARGEALALPNFGLETVHHVHADDVAAMFMDAIANRNASLGESFHAVSEQALTLRGYAESMSRWFGRDPKLTFAPFDAWARGQAAEDAEATWEHIARSPNCSIAKARRLLGYGPRYTSLQAVQESVGWLLGQGRIKS | failed
5 | MTKNDNTIFKDIYQLWFTQYKQTVKESTWVTTQRLFRLHILPIFSDYRIAKISIKDCQKAINQWFNAGLAKYHTLMNYVAKVLDYAINIDLISENPAKRVIVPVNKNDRSLEHHHHHH | not failed
6 | MDLDPTLLTWAFVVGGALLMLIEAVVPGGIAFFLGIGGVVVGGLRALGLLVDPLSSVVTWVFLSTGLTIALRPLMLRFVQGDVSLAMTDEDAEAMGETVTVVEAVGPESPGRIRFRGATWDARTLEGRLPDGAEAQLLYRDNLTWVVEPADHADLDAELSAAIGSDVSEGDANRSPSTDDTTSDDSGLGYDPSARSSS | failed
7 | MRCCHSGKSYRLWGHRSSQRHRSGETGRGRLRIDQPGAASRRGSRALSWCGCHHVPCPDVTGAGRVRATCRRSFVHERNPHLHMLDAFHRGDVGLYTGTMTAPALLSREAELSRRDLIALESRLREAVSRFLPFKAYSLYFPREAETVEPLWLPGEGRLLLPLIHGGALLAVFVARGVPRRIVRSLMPAFPGLLALCMENLALYKAGRTDALTGLSTRQHLVERMAREADHVRTCFANPPEGEGDLGAPLHRACMGLVVVRLASLRQVARDHGYTFADRLTTELARELSALAPEQALAARTGDYEFALLVPAAASGVCRKLAEEAVQRLSAVSLRCGLTEKAVRVCVSAGYAVYPRDMEGALFERDMAEQARVLLRKARLAAAVAGEGEGSEGPGVMGFARILAEGGAVVETHPLSRVMVNLGRSMNAREGQRFSVWSVAYPVRGGTHEPRQPLYKGEVVLLEVREDRSVAEILHLGDPTWPIEPGDRLTLLPEEKGGDARRDASGVQVDPLTGLYRHGDFLARWSEAREGCDCFALALVRFSDDGRDPEGRASHPEQLMAEAAQLCRDHFGAETLGGRYGLNSIVFFHPDMTCDAARESYRQLCDLLSKRLRIDAAVGVGCHPFLAYRRADALENALKALEYALLLPEPRVGIFDSLALNISADKRFSLGDTFGAIEEYKTALLADEGNTMAWNSLGVCMAGLGRHGEARRYFEQALQRKPGDPMALYNLGTVCQSLGETAEARKQYRKCLKYAPGHVFALVRLGQLAEGEKRYAQARQYFNKAARAGDSGGLVHRNLARLSMRQGRPDEAREHLHDALLRNPQDAVALQLMARLYLDGGEDPAMAEALSRQSVALRPDLKQGWLELARALDARGHVAEAREARLRAGER | failed
8 | MEYTPFSLILDVGWISGLMIIGNIMRRKIPFFQTLLIPSSITAGIIGMILGPKVLGLIGWSDHLSTYTTVLIAIVFASMPYSMKFDRGVRTGMKTMWAYSTAMFVGQWGLFILLGLFLFQPVWGTDEWFGMMLPVGFVGGFGTAAAVGTALESSGAEAAMSLGFTSATVGTFAAIVGGIIFTTWGIKKGKTAAMPAQLPWDLRSGYIDKLSDRPSIGKASTNPSAIEPLALHTGIILLTVAVAYSINQWLGSMFPTVQIPLFAMSFVVGIVGMGIMRLLKKPEYLDRDTVNSVSGAATDYLIAFGIASIAPAAIADYWVPLVVLFVLGTIYCCFFFFWVAPRFFGEKWLERAIFGWGWATAAVATGIALLKIVDPKLKSGALNEYGVAYIGFAPFEIGMTIIAPIAVLAGFTMGLGWASLIVAIVIFGLAWGLKWLPERGHVRGEGKPQ | failed
9 | MSSLQGGISLTHIAAGIAVVALIILGVGFYAIYQELASLRSQVEGLNTRYEEISESLEEVQGAFESSRGDIESIASSLESIQDRVSKIEERLGSAATQSDLDAVARELASLTQQLEDLQARIQALEESGAEAGERLDQLAMALQDLQARLASLEERVDEVYASLYFPVTVVDGTGTPVVILERPERIVSMAPSATETLYYVGALDRVVGVDQYSDFPPELNEAKEAGEVEVIGGYWNPSIEAILSLEPDLVVGVASVPNHIQVKKVLSAYGIPVILLPDSSLEDVRESMMIVGKATGEVVGAYEAVLKFDMAVAAAGLLLEGVEPVETAVVVWPNPLFVVGGGTWEHEVIELAGGVNVYGDTQGWPQVSYESLLEADPDVIILMGGHGNSGVTVEGFIEALESQLGEAAWEIDAVASGRIYVLLDEYNDSFARPSPRTVLSIYVLAVLIQPSAFDIQPGDLPSEVSPETLDVLGLLEGRVPEEVLEFLGEALG | failed
10 | MEVDKKDEREAESSEQVVNPWEVSAKDGGKIDYDKLIDKFGCQRLDESLIDRVQRLTSRQPHVFLRRSVFFAHRDFNEILDAYERGDKFYLYTGRGPSSEALHLGHLIPFMFTKYLQEAFKVPLVIQLTDDEKSIWKNLSVEESQRLARENAKDIIACGFDVTKTFIFSDFDYVGGAFYKNMVKVGKCVTLNKAMGIFGFSGEDPIAKLSFPPVQAVPSFPSSFPHLFPGKDNLRCLIPCAIDQDPYFRMTRDVAPRLGYSKPALIESTFFPALQGENGKMSASDPNSAIYVTDSAKDIKNKINRYAFSGGQDSIEKHRELGANLEVDIPVKYLSFFLEDDSELEHIKKEYGEGRMLTGEVKKRLTEVLTEIVERHRRARAAVTDEMVDAFMAVRPLPSMFE | not failed
11 | MRFVVAFFWTFLLTQMACYIVGAMNGAGYDLQTSVIMGFIITAAVIVLGEIMPVKQDASQH | failed
12 | QKYQALLANNVENTAKEALHQLAYTGREYNNIQDQIETISDLLGHSQSLYDYLREPSKANLTILENMWSSVARNQKLYKQIRFLDTSGTEKVRIKYDFKTSIAGPSLILRDKSAREYFKYAQSLDNEQISAWGIELERDKGELVYPLSPSLRILMPISVNDVRQGYLVLNVDIEYLSSLLNYSPVRDFHIELVKHKGFYIASPDESRLYGDIIPERSQFNFSNMYPDIWPRVVSEQAGYSYSGEHLIAFSSIKFVSNEPLHLIIDLSNEQLSKRATRDINDLIQES | not failed
13 | MKVLILGGGYTGQRLAQLLAAQSIPVLATTRSGQWPLDEPCVTFDAGSTPLLLPDPAALAGVTHVLSTIPPLGDGGDPVLSTLLPTLQYLSLQWCGYLSTTGVYGDTQGAWVDEDSPLQSTNRRSQQRIAIEAQWLASGLPAHIFRLPGIYGPGRSSFDRLRRGDNQRLLKPGHVFCRIHVDDIAAALWASLQQPNPGRIYNVSDDFPCEPALLIEAAAQLMGVELPPPLPVDAVELSPMAASFWSECRRVRNDRLKQELGVQLRYPSYREGLAAIWAAELEHHHHHH | failed
14 | MGMFERDTEIYLDRDALREDYQPENLVGRDTELNRYRAALQPVINGEQPNNIFLYGKTGVGKTAGTRYLIDHLEEDAAKYEDIDLTVKMLNCDGLSSSYQIATRLVNEFRDETSQISTTGYPRATVYDMLWTELDSCGGTIYIVLDEVDHIEDDSILYQLPRARANDNLSSAKIGIIGISNDFSFRDDLSPKVKSSLCEEEIQFPAYDAKELIQILQQRADVAFHDGVLEDGVIELCAAYGAKDAGDARQSLDLLMKTGDLARDKDTDTISEDLVREARDVLERGRIQEGISGLTQHGHLVVYAMVTLDQEGKTPARTRDIRPRYTNFAEKAGIDPLVPRRMRDHLGELSMLGIISAIERNEGRRGGTYREYSLEMDPEMILAALEKTVDDVGIHKSVTNLVDAEATLSDFQST | failed
15 | MDPSSVIWIFFVFLFFYPQVLFRYRLLQRYKFIKQFEAVRKTRAIVMIHRQEQLALFGIPLYKYITIEDSEEILRAIRMTPEDMPIDLILHTPGGLVLASEQIAIALKEHKAKTTVIIPHYAMSGGSLIALAADEIIIDKNAVMGPVDPQIGQYPAASIINAINTKYTDELDDETLILGDIARKAIVQVKEFVYDILKDKMGEEKAKYLSETLSTGKWTHDYPLTINKLKDLGIEVNTELPNIVYELFDLYRQPVNQRPSVQYVPVPYKRGTK | failed
16 | MSISSKAKEILTQFTREVWSEGNIEASDKYIAPKYTVLHDPGDPWEGRELDVAGYKERVKTLRAAFPDQCFDIQGLFADGDAVVMTWLWTATHKEDIPGFPSTGKQIKMSGATVYYFDGNRLTGHWQITDRLGVYQQLRQAAAGA | not failed
17 | MSSPVVEIQIWSDLICPWCWIGKRRLERALRNSSLFADIKVRHRAFRLMPELIPLPVIDVLQQRYGGSAEQIVAIQQRIEKIAAEESLIYRLVGTQGADTLQAHRLLYLAHRQGLQEVLLERFYSAYFSEGTPIFDTDTLAPLALDVGLERTAVAALFAGQDFIAEIEDDQRRLQRYGANGVPFFLMDGRIAVNGAQPIEAFSDALAQLNADAASQSAFFLR | failed
18 | MEFLDWKFIFIIITFAFIGLICIFKRSKIGLTAASVGIIGSLILWGFFKVSIKVRNFLDGVGLSFKDLLNFLFVVITAIIAFLVIFLFLKAFNNFGSKIRKR | failed
19 | SAAPVDLELKKAFTELQAKVIDTQQKVKLADIQIEQLNRTKKHAHLTDTEIMTLVDETNMYEGVGRMFILQSKEAIHSQLLEKQKIAEEKIKELEQKKSYLERSVKEAEDNIREMLMARRAQ | failed
20 | MFLAGAFIAVGSLYAQSSDAEWQAGVAKLKETIQTNPAQANEEAEQLIKGKNKKNVELLVAIGEVYLKAGKLPEAQEYAALAKKVNGKSALASVLEGDIAFEQKNAGLASQKYEEAIYFDPSCTEAYLRYADIYKSANAALAIEKLEQLKAQEPSNTAVDKKLAEIYYLKNDFSKAAEAYSRFAMGPTATEEDLVKYAFALFLNHDFEKSLEVANMGLKKNARHAAFNRLAMYNYTDLKRFDEAIKAADAFFTESDKADYSYLDYMYYGHLLEALKKYDEAVGQYEKAIQLDPTKTDLYKNISSAYEQKNDYKKAISAYQKYYTSLDKEHQTPDLQFQFGRLYYGAGTQTDSLTINAEERKQALMAADSVFHSIAEAAPDSYLGNFWRARANSALDPETTLGLAKPFYEEVATLLESKNDPHYNSALIECYSYLGYYYLLAIENPALKAEAMANKEKSKEYWSKILAIDSTNATAKRALDGIK | failed
